Measured values from patent publication US5854049.

Legend:
[1] = biological target: native, full-length mature SK protein derived from Streptococcus equisimilus (nSK) (Streptococcus equisimilus)
[2] = biological target: rSK (fusion protein with maltose binding protein linked to the amino terminus of nSK) (Streptococcus equisimilis (SK part))
[3] = biological target: purified human Glu-plasminogen (American Diagnostica, 98% Glu-type plasminogen) (human) (UniProt P00747)
[4] = biological target: purified human Glu-plasminogen (American Diagnostica, 98% Glu-type plasminogen) (human) (UniProt P00747); remark: listed apart in the source

Substance	cleavage of SK by plasmin after mixing with excess Glu-plasminogen (immunoblot with monoclonal anti-SK antibodies) [1]	cleavage of SK by plasmin after mixing with excess Glu-plasminogen (immunoblot with monoclonal anti-SK antibodies) [2]	amidolytic kinetic parameters of the SK-PAC on S2251: Km (µM), Kcat (S^-1), kcat/Km (µM^-1 S^-1) [3]	lag phase of plasminogen activation (S2251 hydrolysis, absorption at 405 nm, 21° C.) [4]
plasmin (from UniProt P00747) (enzyme)	< 30 s	1 min		
native, full-length mature SK protein derived from Streptococcus equisimilus (nSK)			0.226 µM^-1 S^-1	< 50 s
